Test results from patent US20210032351A1 (XDCEXPLORER SHANGHAI, published 2021).

B1: Humanized antibody h75G7C6-8 (antibody, human IgG1, V domains shown)
VH: QVQLVQSGAEVKKPGASVKVSCKASGYTFTDYNMDWVRQAPGQGLEWMGDINPNNADTIYNQKFKGRVTMTRDTSTSTVYMELSSLRSEDTAVYYCARGDYDGYYPVYYAMDYWGQGTTVTVSS
VL: ENVLTQSPATLSLSPGERATLSCRASSSVSSSYLHWYQQKPGQSPRLLIFSTSNLAAGVPARFSGSGSGTDYTLTISSLEPEDFAVYYCQQYSGYPLTFGGGTKVEIK
B2: Chimeric antibody c63A10A7 (antibody, human IgG1, V domains shown)
VH: QVQLQQSGAELARPGASVKMSCKASGYTFISFTMHWVKQRPGQGLEWIGYINPNSGYTKYNQKFKDKATLTAGQSSSTAYMQLSSLTSEDSAVYYCTRGGGRGFAYWGQGTLVTVSA
VL: DILMTQSPSSMSVSLGDTVTITCHASQDINSNIGWLQQKPGKSFKALIYHGTNLEDGVPSRFSGSGSGADYSLTISSLESEDFADYYCVQYAQFPFTFGSGTKLEIK
notes: also called chimeric antibody 63A10
B3: Humanized antibody h63A10A7-25 (antibody, human IgG1, V domains shown)
VH: QVQLVQSGAEVKKPGASVKVSCKASGYTFISFTMHWVKQRPGQGLEWIGYINPNSGYTKYNQKFKDKATLTRDTSTSTVYMELSSLRSEDTAVYYCTRGGGRGFAYWGQGTLVTVSS
VL: DILMTQSPSSLSASVGDRVTITCHASQDINSNIGWYQQKPGKSFKALIYHGTNLEDGVPSRFSGSGSGADYTLTISSLQPEDFATYYCVQYAQFPFTFGQGTKLEIK
notes: Human IgG1 constant region, human kappa constant region
B4: Humanized antibody h63A10A7-23 (antibody, human IgG1, V domains shown)
VH: QVQLVQSGAEVKKPGASVKVSCKASGYTFISFTMHWVKQRPGQGLEWIGYINPNSGYTKYNQKFKDKATLTRDTSTSTVYMELSSLRSEDTAVYYCTRGGGRGFAYWGQGTLVTVSS
VL: DILMTQSPSSLSASVGDRVTITCHASQDINSNIGWLQQKPGKAPKALIYHGTNLEDGVPSRFSGSGSGADYTLTISSLQPEDFATYYCVQYAQFPFTFGQGTKLEIK
notes: as for B3
B5: Humanized antibody h63A10A7-18 (antibody, human IgG1, V domains shown)
VH: QVQLVQSGAEVKKPGASVKVSCKASGYTFISFTMHWVKQRPGQGLEWIGYINPNSGYTKYNQKFKDKATLTADQSTSTAYMELSSLRSEDTAVYYCTRGGGRGFAYWGQGTLVTVSS
VL: DILMTQSPSSLSASVGDRVTITCHASQDINSNIGWLQQKPGKSFKALIYHGTNLEDGVPSRFSGSGSGADYTLTISSLQPEDFATYYCVQYAQFPFTFGQGTKLEIK
notes: as for B3
B6: Humanized antibody h63A10A7-17 (antibody, human IgG1, V domains shown)
VH: QVQLVQSGAEVKKPGASVKVSCKASGYTFISFTMHWVKQRPGQGLEWIGYINPNSGYTKYNQKFKDKATLTRDTSTSTVYMELSSLRSEDTAVYYCTRGGGRGFAYWGQGTLVTVSS
VL: DILMTQSPSSLSASVGDRVTITCHASQDINSNIGWLQQKPGKSFKALIYHGTNLEDGVPSRFSGSGSGADYTLTISSLQPEDFATYYCVQYAQFPFTFGQGTKLEIK
notes: as for B3
B7: Humanized antibody h63A10A7-19 (antibody, human IgG1, V domains shown)
VH: QVQLVQSGAEVKKPGASVKVSCKASGYTFISFTMHWVKQRPGQGLEWMGYINPNSGYTKYNQKFKDKATMTRDTSTSTVYMELSSLRSEDTAVYYCTRGGGRGFAYWGQGTLVTVSS
VL: DILMTQSPSSLSASVGDRVTITCHASQDINSNIGWLQQKPGKSFKALIYHGTNLEDGVPSRFSGSGSGADYTLTISSLQPEDFATYYCVQYAQFPFTFGQGTKLEIK
notes: as for B3
B8: Humanized antibody h63A10A7-21 (antibody, human IgG1, V domains shown)
VH: QVQLVQSGAEVKKPGASVKVSCKASGYTFISFTMHWVKQRPGQGLEWIGYINPNSGYTKYNQKFKDRVTLTRDTSTSTVYMELSSLRSEDTAVYYCTRGGGRGFAYWGQGTLVTVSS
VL: DILMTQSPSSLSASVGDRVTITCHASQDINSNIGWLQQKPGKSFKALIYHGTNLEDGVPSRFSGSGSGADYTLTISSLQPEDFATYYCVQYAQFPFTFGQGTKLEIK
notes: as for B3
B9: Humanized antibody h63A10A7-24 (antibody, human IgG1, V domains shown)
VH: QVQLVQSGAEVKKPGASVKVSCKASGYTFISFTMHWVKQRPGQGLEWIGYINPNSGYTKYNQKFKDKATLTRDTSTSTVYMELSSLRSEDTAVYYCTRGGGRGFAYWGQGTLVTVSS
VL: DILMTQSPSSLSASVGDRVTITCHASQDINSNIGWLQQKPGKSFKALIYHGTNLEDGVPSRFSGSGSGTDYTLTISSLQPEDFATYYCVQYAQFPFTFGQGTKLEIK
notes: as for B3
B10: Humanized antibody h63A10A7-22 (antibody, human IgG1, V domains shown)
VH: QVQLVQSGAEVKKPGASVKVSCKASGYTFISFTMHWVKQRPGQGLEWIGYINPNSGYTKYNQKFKDKATLTRDTSTSTVYMELSSLRSEDTAVYYCTRGGGRGFAYWGQGTLVTVSS
VL: DIQMTQSPSSLSASVGDRVTITCHASQDINSNIGWLQQKPGKSFKALIYHGTNLEDGVPSRFSGSGSGADYTLTISSLQPEDFATYYCVQYAQFPFTFGQGTKLEIK
notes: as for B3
B11: Humanized antibody h63A10A7-20 (antibody, human IgG1, V domains shown)
VH: QVQLVQSGAEVKKPGASVKVSCKASGYTFISFTMHWVRQAPGQGLEWIGYINPNSGYTKYNQKFKDKATLTRDTSTSTVYMELSSLRSEDTAVYYCTRGGGRGFAYWGQGTLVTVSS
VL: DILMTQSPSSLSASVGDRVTITCHASQDINSNIGWLQQKPGKSFKALIYHGTNLEDGVPSRFSGSGSGADYTLTISSLQPEDFATYYCVQYAQFPFTFGQGTKLEIK
notes: as for B3
B12: Humanized antibody h63A10A7-26 (antibody, human IgG1, V domains shown)
VH: QVQLVQSGAEVKKPGASVKVSCKASGYTFISFTMHWVKQRPGQGLEWIGYINPNSGYTKYNQKFKDKATLTRDTSTSTVYMELSSLRSEDTAVYYCTRGGGRGFAYWGQGTLVTVSS
VL: DILMTQSPSSLSASVGDRVTITCHASQDINSNIGWYQQKPGKSFKALIYHGTNLEDGVPSRFSGSGSGADFTLTISSLQPEDFATYYCVQYAQFPFTFGQGTKLEIK
notes: as for B3

Legend:
[1] = target: human EGFRvIII-hFc protein (human) (UniProt P00533); test: ELISA, EGFRvIII-hFc coated
[2] = target: human EGFRvIII protein on the cell surface (human) (UniProt P00533); test: FACS on U87MG-EGFRvIII cells
[3] = target: T1, wild-type EGFR protein on the surfaces of A431 tumor cells and normal human primary hepatocytes (human, UniProt P00533 25-1210); test: FACS, MFI on A431 cells over MFI on normal primary hepatocytes
T1 construct: whole, on cells; Same protein on two cell types; also called human epidermal growth factor receptor; her-1
Protocol: (§1) The preparation of U87MG-EGFRvIII required for FACS detection is as described in the preparation of the immunogen B in example 1. Normal human primary hepatocytes are purchased from BioreclamationIVT, and A431 tumor cells are purchased from ATCC. The recovered hepatocytes are directly used for FACS detection, and the recovered U87MG-EGFRvIII and A431 cells are subjected to an expanded culture to 90% confluence in a T-75 cell culture flask; the medium is sucked out, and the cells are washed twice with a HBSS buffer (Hanks Balanced Salt Solution) (purchased from Invitrogen), and then treated with an enzyme-free cell dissociation solution (Versene solution: purchased from Life Technology) and collected. The cells are washed twice with the HBSS buffer and are counted, and then the cells are diluted with the HBSS buffer to 2×10⁶ cells/ml, added with 1% goat serum blocking solution, with the percentage being the mass percentage, and incubated on ice for 30 minutes, and then centrifugally washed twice with the HBSS buffer. The collected cells are resuspended to 2×10⁶ cells/mL with an FACS buffer (HBSS+2% FBS, with the percentage being the volume percentage), added to a 96-well FACS reaction plate at 100 μL/well, then added with 100 μL/well of the purified EGFRvIII antibody (samples to be tested) obtained in example 12, and incubated on ice for 2 hours. The plate is centrifugally washed twice with the FACS buffer, added with 100 μL/well of a 1:1000 diluted fluorescence (Alexa 488) labeled secondary antibody (purchased from Invitrogen), and incubated on ice for 1 hour. The plate is centrifugally washed 3 times with the FACS buffer, added with 100 μL/well of a fixing solution [4% (v/v) paraformaldehyde] to resuspend the cells, and centrifugally washed twice with the FACS buffer after 10 minutes. The cells are resuspended in 100 μL of the FACS buffer, and the results are detected and analyzed by FACS (FACS Calibur, purchased from BD). Data analysis is performed by using the software (CellQuest) to obtain the mean fluorescence intensity (MFI) of the cells. Data is further analyzed by using the software (GraphPad Prism5) to perform data fitting and calculate EC50.

[4] = target: T1, wild-type EGFR protein on the surfaces …; test: FACS, normal human primary hepatocytes
Protocol: as §1

[5] = target: T1, wild-type EGFR protein on the surfaces …; test: FACS, A431 tumor cells
Protocol: as §1

| EC50 [1] [nM] | Maximum OD450 value [1] [OD450] | EC50 [2] [nM] | Maximum mean fluorescence intensity [2] [MFI] | Selective window (MFIA431/Hepatocytes) [3] [ratio] | mean fluorescence intensity (MFI) [4] [MFI] | mean fluorescence intensity (MFI) [5] [MFI] | Binder |
| --- | --- | --- | --- | --- | --- | --- | --- |
| 2 | 2.72 | 11.6 | 17600 | – | – | – | B1 |
| – | – | – | – | 15.8 | 299 | 4730 | B2 |
| – | – | – | – | 17 | 433 | 7360 | B3 |
| – | – | – | – | 6 | 661 | 4000 | B4 |
| – | – | – | – | 16.5 | 553 | 9140 | B5 |
| – | – | – | – | 15.6 | 677 | 10600 | B6 |
| – | – | – | – | 8.7 | 439 | 3830 | B7 |
| – | – | – | – | 14 | 568 | 7930 | B8 |
| – | – | – | – | 19.6 | 502 | 9860 | B9 |
| – | – | – | – | 15.8 | 592 | 9380 | B10 |
| – | – | – | – | 15.4 | 486 | 7460 | B11 |
| – | – | – | – | 14.1 | 435 | 6130 | B12 |
